Reference: patent US7824897B2, “Modified tumor necrosis factor-alpha converting enzyme and methods of use thereof” (Schering Corp., priority 2002, dated 2010)
Changes are numbered by the printed parent chain. Names may count otherwise.

Legend:
Format in all cases: physicochemical
[1] = biological target: T1, TACE (Homo sapiens, UniProt P78536, N452Q/S266A); experiment: Stability of TACE (auto-proteolysis) on storage at 4 degrees Celsius, SDS-PAGE; details: TACE 15 mg/ml, seven days
T1 construct: Only the catalytic domain was purified; GS linker + His6 (C); made in house; host or cells: Trichoplusia ni (High5) cells, baculovirus
Procedure: Stability of TACE: The stability of TACE was examined under several buffer conditions at pH 7.5. Twenty microliter aliquots of TACE at 15 mg/ml were desalted over P-6 spin columns (BioRAD, Hercules, Calif.) that had been equilibrated in: • (a) 25 mM Tris, 0.15M NaCl; • (b) 25 mM Tris; or • (c) 25 mM Tris plus N-{D,L-2-(hydroxyaminocarbonyl)methyl-4-methylpentanoyl}-L-3-amino-2-dimethylbutanoyl-L-alanine, 2-(amino)ethyl amide.
The stability of the TACE protein was evaluated after storage at 4 degrees Celsius for seven days. After incubating the TACE polypeptide under the three conditions listed above, Sodium Dodecyl Sulfate PolyAcrylamide Gel Electrophoresis (SDS-PAGE) was performed. […] Moreover, the sequencing data indicated the presence of a single cleavage site at 352Y-V353 of SEQ ID NO: 2.

[2] = biological target: T1, TACE; experiment: Stability of TACE and TACE mutants under different storage conditions, SDS-PAGE; details: 25 mM Tris pH 7.5, 4 degrees Celsius, 3 hours
Procedure: (§1) Stability of TACE and TACE mutants: To test for stability under different storage conditions, 20 ul of TACE protein, at 15 mg/ml, was desalted over BIO-RAD P-6 columns equilibrated at pH 7.5 in: • (a) 25 mM Tris, 0.15M NaCl; • (b) 25 mM Tris+1 mM N-{D,L-2-(hydroxyaminocarbonyl)methyl-4-methylpentanoyl}-L-3-amino-2-dimethylbutanoyl-L-alanine, 2-(amino)ethyl amide; or • (c) 25 mM Tris.
(§2) One microliter aliquots were analyzed by SDS-PAGE after storing them for 3 hours, or 17 days at 4 degrees Celsius. […] In direct contrast, all constructs were stable in either 0.15M NaCl, or 1 mM N-{D,L-2-(hydroxyaminocarbonyl)methyl-4-methylpentanoyl}-L-3-amino-2-dimethylbutanoyl-L-alanine, 2-(amino)ethyl amide.

[3] = tested on: TACE; experiment: as above; details: 25 mM Tris pH 7.5, 4 degrees Celsius, 17 days
Procedure: as §1, §2

`CC(C)CC(CC(=O)NO)C(=O)N[C@H](C(=O)N[C@@H](C)C(=O)NCCN)C(C)(C)C` (stereo partly drawn) [N-{D,L-2-(hydroxyaminocarbonyl)methyl-4-methylpentanoyl}-L-3-amino-2-dimethylbutanoyl-L-alanine, 2-(amino)ethyl amide, reference compound] was tested, and the “SDS-PAGE bands after storage with inhibitor” value ([1]; 25 mM Tris pH 7.5, 1:1.5 molar ratio enzyme:inhibitor, 4 degrees Celsius) was “only a single band having a molecular weight of 30 Kd was observed”.

B1: TACE: native tumor necrosis factor-alpha converting enzyme catalytic domain (SEQ ID NO: 6), with GS linker and polyHis tag (protein, listed as Homo sapiens)
chain: RADPDPMKNTCKLLVVADHRFYRYMGRGEESTTTNYLIELIDRVDDIYRNTAWDNAGFKGYGIQIEQIRILKSPQEVKPGEKHYNMAKSYPNEEKDAWDVKMLLEQFSFDIAEEASKVCLAHLFTYQDFDMGTLGLAYVGSPRANSHGGVCPKAYYSPVGKKNIYLNSGLTSTKNYGKTILTKEADLVTTHELGHNFGAEHDPDGLAECAPNEDQGGKYVMYPIAVSGDHENNKMFSQCSKQSIYKTIESKAQECFQERSNKV
modifications: GS linker and polyHis tag
In the case of B1, the “Proteolysis by SDS-PAGE in the absence of salt” value (from here on “Proteolysis by SDS-PAGE”) [2] is reported as “substantial proteolysis”, the “Proteolysis by SDS-PAGE” value [3] is reported as “completely proteolyzed” and the “SDS-PAGE bands after storage without high salt or inhibitor” value ([1]; 25 mM Tris pH 7.5, 4 degrees Celsius) is reported as “two additional fainter bands”.

B2: V353G: modified TACE catalytic domain, Val353 replaced with glycine (SEQ ID NO: 20) (protein, listed as Homo sapiens)
chain: B1 chain with V139G
In the case of B2, the “Proteolysis by SDS-PAGE” value [3] is reported as “highly resistant to auto-proteolysis”.
